B1: Dpr10 (Defective proboscis extension response 10), extracellular region [Drosophila melanogaster] / DIP-α (Dpr Interacting Protein alpha), extracellular region [Drosophila melanogaster] (parent)
chain 1: MLTLWTALFCCLTGLAVCYQRQSVSNNNHNNAEAKPTHAPPSHYPHGHKWNEPYFDLTMPRNITSLVGKSAYLGCRVKHLGNKTVAWIRHRDLHILTVGTYTYTTDQRFQTSYHRDIDEWTLQIKWAQQRDAGVYECQISTQPVRSYSVNLNIVVPTATILGGPDLYVDKGSTINLTCIIKFSPEPPTHIFWYHQDKVLSEETSGGRLKFKTIKSEETKSILLIYDADLLHSGKYSCYPSNTEIASIRVHVLQGERPEAMQTNAAPAAVALACWSCHFGQATQAVRVISTMVAALVLLEACSSLLLQSGGGGGCPGGGSPAGGMPTRVREIREKPLTNSLLDPKIPSTTSAERVNNGSRNAR
chain 2: MPVSAKRLLRNFQFTSCDRNGKMLIHLLLIVSLLEAIGAFQPEFVESISNVSVAVGRDATFTCHVRHLGGYRVGWLKADTKAIQAIHENVITHNPRVTVSHLDQNTWNLHIKAVSEEDRGGYMCQLNTDPMKSQIGFLDVVIPPDFISEDTSSDVIVPEGSSVRLTCRARGYPEPIVTWRREDGNEIVLKDNVGTKTLAPSFRGEVLKLSKISRNEMGSYLCIASNGVPPSVSKRISLSIHFHPVIQVPNQLVGAPLGTDVQIECHVEASPKSINYWIKDTGEMIVTSGKYHVQESSQSMYETKMSMIVRKFQKDDVGSYRCIAKNSLGEVDSSIRLYEIPGPNRNKNPLNGGGKGGGAGGSLDADANDILKQKQQVKVTYQPEDEELQYGSVEDFEAEGGEGGGLTPLSPHVYYTSGNKPATHKPGNSGGNQHLHQQHHHHHHHNNNNNNQQHSGGPGGGPTGGDAGSLGGEMGGITRKPPPYYGGNTEVRGPIDNNEMSSGSGDSRLCRGHHLPILLLPFARLILVRSWHCRHTFLMGLSQACLPGLLLSLL

Variants of: B1
Assay: SPR
Conditions: with DIP-α (Dpr Interacting Protein alpha), 25 °C, 10 mM Tris-HCl, pH 7.2, 150 mM NaCl, 1 mM EDTA, 1 mg mL−1 BSA, 0.01% (v/v) Tween-20, analyte 81 to 0.012 μM, three-fold dilution series, parent: 0

| ddG [kcal/mol] | Variant |
| --- | --- |
| > 3.5 | chain 1 MLTLWTALFCCLTGLAVCYQRQSVSNNNHNNAEAKPTHAPPSHYPHGHKWNEPYFDLTMPRNITSLVGKSAYLGCRVKHLGNKTVAWIRHRDGHILTVGTYTYTTDQRFQTSYHRDIDEWTLQIKWAQQRDAGVYECQISTEPKRSYSVNLNIVVPTATILGGPDLYVDKGSTINLTCIIKFSPEPPTHIFWYHQDKVLSEETSGGRLKFKTIKSEETKSILLIYDADLLHSGKYSCYPSNTEIASIRVHVLQGERPEAMQTNAAPAAVALACWSCHFGQATQAVRVISTMVAALVLLEACSSLLLQSGGGGGCPGGGSPAGGMPTRVREIREKPLTNSLLDPKIPSTTSAERVNNGSRNAR [chain 1 L93G Q142E V144K] |
